Reference: US20170022281A1 (AbbVie / Abbott, published 2017)
Where a chain is given by its changes, count along the chain named.

T1: human PRLR (Biacore antigen) (human, UniProt P16471 25-234, limits assumed)
T1 construct: The construct injected over captured antibody is not described (a soluble form is likely); also called huPRLR
T1 sequence: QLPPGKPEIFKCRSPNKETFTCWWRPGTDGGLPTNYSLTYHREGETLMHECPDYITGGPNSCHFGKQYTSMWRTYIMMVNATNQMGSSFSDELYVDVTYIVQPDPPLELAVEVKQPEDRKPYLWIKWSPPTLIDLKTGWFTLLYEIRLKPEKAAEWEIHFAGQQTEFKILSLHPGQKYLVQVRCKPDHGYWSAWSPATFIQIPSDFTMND

T2: human PRLR on cells (human, UniProt P16471 25-622)
T2 sequence: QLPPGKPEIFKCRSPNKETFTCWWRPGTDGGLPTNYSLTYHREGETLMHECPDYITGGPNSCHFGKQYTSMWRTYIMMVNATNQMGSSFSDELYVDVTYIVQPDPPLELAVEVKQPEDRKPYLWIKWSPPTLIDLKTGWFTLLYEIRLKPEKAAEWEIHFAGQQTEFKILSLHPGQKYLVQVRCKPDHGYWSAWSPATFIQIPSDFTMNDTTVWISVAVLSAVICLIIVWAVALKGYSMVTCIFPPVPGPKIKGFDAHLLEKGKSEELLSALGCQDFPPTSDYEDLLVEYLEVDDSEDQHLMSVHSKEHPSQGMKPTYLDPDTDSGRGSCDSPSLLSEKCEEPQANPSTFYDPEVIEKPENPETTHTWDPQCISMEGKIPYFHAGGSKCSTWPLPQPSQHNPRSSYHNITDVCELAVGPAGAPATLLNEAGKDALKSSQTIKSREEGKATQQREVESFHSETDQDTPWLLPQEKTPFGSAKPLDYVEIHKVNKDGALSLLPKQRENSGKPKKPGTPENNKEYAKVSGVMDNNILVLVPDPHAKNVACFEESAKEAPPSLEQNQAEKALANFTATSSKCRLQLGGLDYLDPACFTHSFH

T3: mouse PRLR on Baf3-mPRLR cells (mouse, UniProt Q08501 20-608)
T3 sequence (looked up): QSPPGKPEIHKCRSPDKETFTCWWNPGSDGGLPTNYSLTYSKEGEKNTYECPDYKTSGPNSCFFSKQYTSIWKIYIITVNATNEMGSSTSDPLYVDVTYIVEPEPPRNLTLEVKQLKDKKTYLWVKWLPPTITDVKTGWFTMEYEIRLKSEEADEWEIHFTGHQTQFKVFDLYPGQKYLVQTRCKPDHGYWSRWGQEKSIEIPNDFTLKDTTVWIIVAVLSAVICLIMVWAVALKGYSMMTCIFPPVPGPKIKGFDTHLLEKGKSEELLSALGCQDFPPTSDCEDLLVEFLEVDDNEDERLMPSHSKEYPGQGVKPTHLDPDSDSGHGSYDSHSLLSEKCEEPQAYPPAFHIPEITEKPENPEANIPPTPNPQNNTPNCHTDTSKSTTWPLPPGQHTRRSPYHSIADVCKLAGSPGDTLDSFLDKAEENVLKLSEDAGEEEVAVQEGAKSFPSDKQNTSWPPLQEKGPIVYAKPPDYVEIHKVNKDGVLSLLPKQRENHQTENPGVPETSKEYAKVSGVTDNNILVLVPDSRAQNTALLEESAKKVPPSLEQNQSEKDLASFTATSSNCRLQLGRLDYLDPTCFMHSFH

B1: Ab39 (antibody, human IgG1, kappa, V domains shown)
VH: EVQLVQSGAEVKKPGSSVKVSCKASGYTFTSYWIHWVRQAPGQGLEWIGEIDPSDSYTNYNQKFKGRATLTVDKSSSTAYMELSSLRSEDTAVYYCARSFFTNWFAYWGQGTLVTVSS
VL: DVVMTQTPLSLSVTPGQPASISCRSSQSLVHSNGNTYLHWYLQKPGQSPQLLIYKVSNRFSGVPDRFSGSGSGTDFTLKISRVEAEDVGVYFCSQSTHVPFTFGGGTKVEIKR
notes: humanized from Ab7; G1; also called Ab4 HC.1a and Ab4 LC.1a
B2: Ab40 (antibody, human IgG1, kappa)
heavy: not shown
light: DVVMTQTPLSLSVTPGQPASISCRSSQSLVHSNGNTYLHWYLQKPGQSPQLLIYKVSNRFSGVPDRFSGSGSGTDFTLKISRVEAEDVGVYYCSQSTHVPFTFGGGTKVEIKRTVAAPSVFIFPPSDEQLKSGTASVVCLLNNFYPREAKVQWKVDNALQSGNSQESVTEQDSKDSTYSLSSTLTLSKADYEKHKVYACEVTHQGLSSPVTKSFNRGEC
notes: humanized from Ab7; G1; also called Ab4 HC.1a and Ab4 LC.1b
B3: chAb5 (antibody, human IgG1, kappa, V domains shown)
VH: QVQLQQPGAELVRPGTSVKLSCKASGYTFTSFWMHWVKQRPGQGLEWIGVIDPSDTYTNYNQKFKGKATLTVDTSSSTAYMQLSSLTSEDSAVYYCARGDYSNWFTYWGQGTLVTVSA
VL: DVVMTQTPLSLPVSLGDQASISCRSSQRLVHSNGNTYLHWYLQKPGQSPKLLIYKVSNRFSGVPDRFSGSGSGTDFTLKISRVEAEDLGVYFCSQSTHVPWTFGGGTKLEIKT
notes: chimeric, murine variable and human G1/kappa constant regions
B4: chAb7 (antibody, human IgG1, kappa, V domains shown)
VH: QVQLQQPGAELVMPGTSVKLSCKASGYTFTSYWIHWVKQRPGQGLEWIGEIDPSDSYTNYNQKFKGKATLTVDRSSSTAYMQLSSLTSEDSAVYYCGRSFFTNWFAYWGQGTLVTVSA
VL: B3 VL with R28S, S81N, W101F, G105S
notes: as for B3
B5: LFA102 (antibody, human IgG1, kappa, V domains shown)
VH: EVQLVESGGGLVQPGGSLRLSCAVSGFTFSSYGMSWVRQAPGKRLEWVATVSSGGTYTYYPDSVKGRFTISRDNSKNTLYLQMNSLRAEDTAMYYCARHRGNYYATYYYAMDYWGQGTLVTVSS
VL: DIVLTQSPDSLAVSLGERATINCKASKSVSTSGYTYMHWYQQKPGQPPKLLIYLASNRESGVPDRFSGSGSGTDFTLTISPVQAEDVATYYCQHSGELPPSFGQGTKLEIKR
notes: humanized IgG1 kappa comparator (WO 2008022295)
B6: Ab19 (antibody, human IgG1, kappa, V domains shown)
VH: EVQLVQSGAEVKKPGSSVKVSCKASGYTFTTYWMHWVRQAPGQGLEWIGEIDPSDSYSNYNQKFKDRATLTVDKSTSTAYMELSSLRSEDTAVYYCARNGGLGPAWFSYWGQGTLVTVSS
VL: DIQMTQSPSSVSASVGDRVTITCKASQYVGTAVAWYQQKPGKSPKLLIYSASNRYTGVPSRFSDSGSGTDFTLTISSLQPEDFATYFCQQYSSYPWTFGGGTKVEIKR
notes: humanized from Ab6; G1; also called Ab1 HC.1a and Ab1 LC.1a
B7: Ab21 (antibody, human IgG1, kappa, V domains shown)
VH: B6 VH
VL: EIVMTQSPATLSVSPGERATLSCKASQYVGTAVAWYQQKPGQSPRLLIYSASNRYTGVPARFSDSGSGTEFTLTISSLQSEDFAVYFCQQYSSYPWTFGGGTKVEIKR
notes: humanized from Ab6; G1; also called Ab1 HC.1a and Ab1 LC.2a
B8: Ab49 (antibody, human IgG1, kappa, V domains shown)
VH: EVQLVQSGAEVKKPGASVKVSCKASGYTFTDYNIHWVRQAPGQGLEWIGYIYPNNDGTGYNQKFKSRATLTVDNSTSTAYMELRSLRSDDTAVYYCARGDGNYVGDMDYWGQGTTVTVSS
VL: DIQMTQSPSSLSASVGDRVTITCRASENIYSYLAWYQQKPGKAPKLLVYNAKTLAEGVPSRFSGSGSGTDFTLTISSLQPEDFATYYCQHHYATPFTFGQGTKLEIKR
notes: humanized from Ab8; G1; also called Ab3 HC.1a and Ab3 LC.1b
B9: Ab48 (antibody, human IgG1, kappa, V domains shown)
VH: B8 VH
VL: B8 VL with A43P
notes: humanized from Ab8; G1; also called Ab3 HC.1a and Ab3 LC.1a

Legend:
[1] = biological target: T1, human PRLR (Biacore antigen); experiment: SPR simultaneous binding; PRLR held by surface mAb chAb6
Experimental: (§1) Running buffer was HBS-EP+ (10 mM Hepes, pH7.4, 150 mM NaCl, 3 mM EDTA, 0.05% surfactant). Assay was performed at 12° C. using Biacore T200 and CM5 sensor chips with anti-human IgG (Pierce) amine-coupled in all 4 flow cells to ˜2000 RU.
(§2) Separate test mAbs were captured in flowcells 2, 3 & 4 (flowcell 1 was reference, no test mAb). All 4 flowcells were then blocked by injection with isotype control mAb at 50 ug/ml. All 4 flowcells were then injected with antigen or buffer only (buffer only is for double referencing, done for each mAb pair individually). All 4 flowcells were then injected with 2nd test mAb at 10 ug/ml. All 4 flowcells were then regenerated with glycine, pH1.5.

[2] = biological target: T1, human PRLR (Biacore antigen); experiment: SPR simultaneous binding; PRLR held by surface mAb Ab40
Experimental: as §1, §2

[3] = biological target: T1, human PRLR (Biacore antigen); experiment: SPR simultaneous binding; PRLR held by surface mAb chAb7
Experimental: as §1, §2

[4] = biological target: T1, human PRLR (Biacore antigen); experiment: SPR simultaneous binding; PRLR held by surface mAb chAb8
Experimental: as §1, §2

human PRLR on cells = biological target: T2, human PRLR on cells; experiment: cell-based or functional assay
[5] = biological target: T3, mouse PRLR on Baf3-mPRLR cells; experiment: cell-based or functional assay
[6] = biological target: T1, human PRLR (Biacore antigen); experiment: SPR simultaneous binding; PRLR held by surface mAb LFA102
Experimental: as §1, §2

Binder	solution mAb binding, % of PRLR binding [1] [%]	solution mAb binding, % of PRLR binding [2] [%]	solution mAb binding, % of PRLR binding [3] [%]	solution mAb binding, % of PRLR binding [4] [%]	Baf3-hPRLR proliferation IC50 (human PRLR on cells) [µg/mL]	Baf3-mPRLR proliferation IC50 [5] [µg/mL]	solution mAb binding, % of PRLR binding [6] [%]	T47D pPRLR ELISA IC50 (human PRLR on cells) [µg/mL]
B1	0	-2	1	1	0.27	> 30	92	
B2	-1	-2	1	0	0.4	> 30	35	
B3	-1	-2	0	7	0.15	2.51	102	
B4	-1	-2	0	2	1.2	3.6	48	
B5	26	40	39	1	0.56	> 30	-2	0.069
B6	0	-2	0	0	0.12	> 30	122	
B7	-1	-2	0	0	0.15	> 30	104	
B8	-2	-3	0	-1	0.37	> 30	-2	
B9	-2	-2	0	-1	0.4	> 30	-2	
